The record followed here is patent publication US20100068218A1.

For orientation: IC50 means the midpoint of a concentration-inhibition curve.

In the first test the target is HLA-A*2402 (human). Kind of test: peptide-HLA binding inhibition assay.
Turning to GYPALMPLY (modifications not checked) [HBV pol 639 epitope …], the IC50 worked out at 280 nM. RFSWLSLLVPF (modifications not checked) [HBV env 332 epitope …] gave an IC50 of 12 nM. This IC50 lies about 23-fold lower than the previous one. SFCGSPYSW (modifications not checked) [HBV pol 167 epitope …] had an IC50 of 146 nM. LWFHISCLTF (modifications not checked) [HBV core 101 epitope …] registered an IC50 of 6.7 nM.

The next test deals with HLA-A*0101 (human). Kind of test: peptide-HLA binding inhibition assay.
The molecule LTFGRETVLEY (modifications not checked) [HBV core 137 epitope …] displayed an IC50 of 80 nM. That is a double-digit nanomolar value. Same read-out and setting: as for YSLNFMGY (modifications not checked) [HBV pol 580 epitope YSLNFMGY], the figure is 382 nM.
